This test has as its target CCR7-EGFP (human CCR7 fused to EGFP) (human) (UniProt P32248).
Sequence of UniProt P32248 (P32248 25-378): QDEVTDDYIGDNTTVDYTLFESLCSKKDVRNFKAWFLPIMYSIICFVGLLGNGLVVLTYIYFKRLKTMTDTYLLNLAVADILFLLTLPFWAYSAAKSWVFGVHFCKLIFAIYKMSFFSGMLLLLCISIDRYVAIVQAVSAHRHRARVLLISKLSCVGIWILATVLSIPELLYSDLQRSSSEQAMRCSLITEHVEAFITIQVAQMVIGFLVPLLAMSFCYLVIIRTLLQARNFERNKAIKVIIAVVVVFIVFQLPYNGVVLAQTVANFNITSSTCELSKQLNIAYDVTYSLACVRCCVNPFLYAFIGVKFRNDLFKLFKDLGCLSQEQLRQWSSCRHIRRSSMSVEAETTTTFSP

On to “CCL19 (recombinant untagged, native mature human CCL19) (from UniProt Q99731 22-98) (ligand)”, for which the Transwell migration of 300-19 pre-B cells stably expressing CCR7 towards graded concentrations of chemokine, 3 h; concentration of maximal migration was 50 nM.

The record behind these values is article PMC8072677.
